What was measured:
[1] = target: endogenous mouse SIRPα of wildtype C57BL/6 mice (NP_031573.2) (mouse (C57BL/6)) (UniProt P97797); assay: flow cytometry; CD47 protein on peritoneal cavity cells of wildtype C57BL/6 mice, detected with anti-CD47 human antibody and AF647-Anti-hIgG
[2] = target: endogenous mouse SIRPα of wildtype BALB/c mice (mouse (BALB/c)) (UniProt P97797); assay: flow cytometry; CD47 protein on peritoneal cavity cells of wildtype BALB/c mice, detected with anti-CD47 human antibody and AF647-Anti-hIgG

UniProt P97797, sequence (P97797 other isoform, or with tags, fused parts or gaps): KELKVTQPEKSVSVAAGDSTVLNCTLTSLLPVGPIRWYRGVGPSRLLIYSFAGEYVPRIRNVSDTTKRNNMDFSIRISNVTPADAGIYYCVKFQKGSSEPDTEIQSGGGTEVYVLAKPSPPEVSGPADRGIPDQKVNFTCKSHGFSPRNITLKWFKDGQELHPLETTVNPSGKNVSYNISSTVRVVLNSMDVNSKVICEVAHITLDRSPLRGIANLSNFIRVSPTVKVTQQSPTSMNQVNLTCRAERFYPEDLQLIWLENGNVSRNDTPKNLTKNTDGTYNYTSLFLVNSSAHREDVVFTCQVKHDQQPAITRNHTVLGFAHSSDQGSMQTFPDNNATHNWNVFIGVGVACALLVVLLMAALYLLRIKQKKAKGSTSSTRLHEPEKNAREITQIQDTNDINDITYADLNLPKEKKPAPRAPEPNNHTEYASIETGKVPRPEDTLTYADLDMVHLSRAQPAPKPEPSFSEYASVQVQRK

geometric mean of flow cytometry signal [1]: 100
geometric mean of flow cytometry signal [2]: 100
Substance: mouse CD47 proteins (added to peritoneal cavity cells, Example 16) (ligand)

Source: patent US20190373867A1
